In PMC8219104 (2021):

B1: Sybody Sb16 (VHH)
VHH: QVQLVESGGGLVQAGGSLRLSCAASGFPVAYKTMWWYRQAPGKEREWVAAIESYGIKWTRYADSVKGRFTISRDNAKNTVYLQMNSLKPEDTAVYYCIVWVGAQYHGQGTQVTVSA
B2: Sybody Sb14 (VHH)
VHH: QVQLVESGGGLVQAGGSLRLSCAASGFPVQAREMEWYRQAPGKEREWVAAIKSTGTYTAYAYSVKGRFTISRDNAKNTVYLQMNSLKPEDTAVYYCYVYVGSSYIGQGTQVTVSA
B3: Sybody Sb68 (VHH)
VHH: QVQLVESGGGSVQAGGSLRLSCAASGSISSITYLGWFRQAPGKEREGVAALITVNGHTYYADSVKGRFTVSLDNAKNTVYLQMNSLKPEDTALYYCAAAAWGYAWPLHQDDYWYWGQGTQVTVSA
B4: Sybody Sb15 (VHH)
VHH: QVQLVESGGGLVQAGGSLRLSCAASGFPVKNFEMEWYRKAPGKEREWVAAIQSGGVETYYADSVKGRFTISRDNAKNTVYLQMNSLKPEDTAVYYCFVYVGRSYIGQGTQVTVS

Molecular target: T1, SARS-CoV-2 spike receptor-binding domain (RBD), amino acids 333 to 529, bacteria-expressed and refolded (SARS-CoV-2, UniProt P0DTC2 333-529)
Test: SPR

In order of falling Kd:
1. B1  40.6 nM
2. B2  13.8 nM

Molecular target: T1, SARS-CoV-2 spike receptor-binding …
Test: SPR
Remark: another data set of the same source

In order of rising koff:
1. B2  0.007 s⁻¹
2. B4  0.011 s⁻¹
3. B1  0.02 s⁻¹
4. B3  0.023 s⁻¹
